According to article PMC8854993, “Acetylation at Lysine 86 of Escherichia coli HUβ Modulates the DNA-Binding Capability of the Protein” (Frontiers in Microbiology, 2021):

Legend:
[1] = target: HUβ(K86ac) K86ac (Escherichia coli BL21(DE3)) (UniProt P0ACF4); test: EMSA; details: 4 µM HU dimer, 1 µM DNA; versus HUβ2; p < 0.05; 2-nt gap in bottom strand; 30 mM Tris pH 7.5, 100 mM NaCl, 0.02% Tween20, 0.5 mg/ml BSA; 30-bp DNA 1 µM, 18°C 10 min, 10% PAGE in TBE; long DNA 250 ng in 15 µL, 37°C 1 h, 0.5% agarose in …
HUβ(K86ac) K86ac (Escherichia coli BL21(DE3)), sequence (P0ACF4 whole entry): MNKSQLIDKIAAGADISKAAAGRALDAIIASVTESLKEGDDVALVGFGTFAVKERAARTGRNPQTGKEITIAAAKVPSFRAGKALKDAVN

HUα;HUβ = HUα;HUβ (Escherichia coli BL21(DE3);Escherichia …, UniProt P0ACF0;P0ACF4 1-90;1-90, |); test: EMSA; heterodimer; higher affinity than homodimer; 30 mM Tris pH 7.5, 100 mM NaCl, 0.02% Tween20, 0.5 mg/ml BSA; 30-bp DNA 1 µM, 18°C 10 min, 10% PAGE in TBE; long DNA 250 ng in 15 µL, 37°C 1 h, 0.5% agarose in; details: protein: recombinant;recombinant; tags: C-terminal 6xHis;C-terminal 6xHis; copies: 1;1; three strands; 2-nt gap in bottom strand between S16 and S17; blunt outer ends
HUα;HUβ, sequence (P0ACF0 whole entry, chain 1 of 2): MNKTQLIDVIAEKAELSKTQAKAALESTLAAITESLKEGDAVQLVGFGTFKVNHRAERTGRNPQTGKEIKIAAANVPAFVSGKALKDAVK
HUα;HUβ, sequence (P0ACF4 whole entry, chain 2 of 2): as the sequence (P0ACF4 whole entry) above

“CCAACTTCCCTAACCCAGCTGCGATCCGTA / TACGGATCGCAGC / GGTTAGGGAAGTTGG [30-bp duplex with 2-nt gap]” was tested, and the binding signal (fold free DNA) [1] was > 4.

B1: 30-bp duplex with 2-nt gap (dsDNA)
DNA 1: CCAACTTCCCTAACCCAGCTGCGATCCGTA
DNA 2: TACGGATCGCAGC
DNA 3: GGTTAGGGAAGTTGG
modifications: 2-nt gap in bottom strand
B1: binds (HUα;HUβ).
